Publication PMC4432389, “Cytosolic Hsp70 and co-chaperones constitute a novel system for tRNA import into the nucleus” (eLife, 2015)

Tests used:
[1] = biological target: T1, Ssa1p (S. cerevisiae, UniProt P10591 1-642); experiment: pull-down; 200 pmol GST or GST-nucleoporin fusion and 40 pmol Ssa1p or Ssa2p incubated with Glutathione Sepharose in Buffer 88 (20 mM HEPES-KOH pH 6.8, 2 mM Mg(OAc)2, 150 mM KOAc) with 0.10% wt/vol Tween-20, 4°C, 2 hr; eluted with 10 mM reduced glutathione; Ssa proteins detected by Western blotting with anti-Ssa protein antibodies; conditions: both partners purified
T1 construct: Ssa1p, cytosolic Hsp70 of S. cerevisiae, full length (residues 1-642 by the domain constructs); Expressed from a pCold2 vector with a C-terminal His6 tag; also called Ssa1p-His6; Ssa proteins; source: E. coli BL21(DE3) co-expressing trigger factor, purified (Ni-NTA agarose)
T1 sequence (P10591 whole entry, the tested form may be a part): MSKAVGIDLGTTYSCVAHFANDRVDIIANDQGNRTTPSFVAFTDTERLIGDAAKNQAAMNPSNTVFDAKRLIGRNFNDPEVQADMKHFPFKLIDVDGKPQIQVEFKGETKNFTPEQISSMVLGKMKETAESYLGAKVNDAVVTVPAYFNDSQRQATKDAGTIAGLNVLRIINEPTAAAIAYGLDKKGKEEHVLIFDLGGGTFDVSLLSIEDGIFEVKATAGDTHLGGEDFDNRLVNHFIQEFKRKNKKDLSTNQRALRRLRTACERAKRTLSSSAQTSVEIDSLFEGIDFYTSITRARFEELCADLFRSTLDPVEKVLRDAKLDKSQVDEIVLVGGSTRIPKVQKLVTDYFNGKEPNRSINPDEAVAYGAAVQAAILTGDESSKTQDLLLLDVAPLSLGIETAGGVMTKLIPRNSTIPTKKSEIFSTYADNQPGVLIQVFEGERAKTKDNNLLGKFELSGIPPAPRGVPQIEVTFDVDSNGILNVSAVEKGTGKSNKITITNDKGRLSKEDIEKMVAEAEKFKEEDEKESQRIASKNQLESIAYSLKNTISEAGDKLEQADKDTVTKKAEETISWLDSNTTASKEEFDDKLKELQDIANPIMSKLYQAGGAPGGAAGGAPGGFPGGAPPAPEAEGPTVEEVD

[2] = biological target: T2, Ssa2p (S. cerevisiae, UniProt P10592 1-639); experiment: as above; conditions: both partners purified
T2 construct: Ssa2p, major cytosolic Hsp70 of S. cerevisiae, full length (residues 1-639 by the domain constructs); Expressed from a pCold2 vector with a C-terminal His6 tag; also called Ssa2p-His6; Ssa proteins; source: E. coli BL21(DE3) co-expressing trigger factor, purified (Ni-NTA agarose)
T2 sequence (P10592 whole entry, the tested form may be a part): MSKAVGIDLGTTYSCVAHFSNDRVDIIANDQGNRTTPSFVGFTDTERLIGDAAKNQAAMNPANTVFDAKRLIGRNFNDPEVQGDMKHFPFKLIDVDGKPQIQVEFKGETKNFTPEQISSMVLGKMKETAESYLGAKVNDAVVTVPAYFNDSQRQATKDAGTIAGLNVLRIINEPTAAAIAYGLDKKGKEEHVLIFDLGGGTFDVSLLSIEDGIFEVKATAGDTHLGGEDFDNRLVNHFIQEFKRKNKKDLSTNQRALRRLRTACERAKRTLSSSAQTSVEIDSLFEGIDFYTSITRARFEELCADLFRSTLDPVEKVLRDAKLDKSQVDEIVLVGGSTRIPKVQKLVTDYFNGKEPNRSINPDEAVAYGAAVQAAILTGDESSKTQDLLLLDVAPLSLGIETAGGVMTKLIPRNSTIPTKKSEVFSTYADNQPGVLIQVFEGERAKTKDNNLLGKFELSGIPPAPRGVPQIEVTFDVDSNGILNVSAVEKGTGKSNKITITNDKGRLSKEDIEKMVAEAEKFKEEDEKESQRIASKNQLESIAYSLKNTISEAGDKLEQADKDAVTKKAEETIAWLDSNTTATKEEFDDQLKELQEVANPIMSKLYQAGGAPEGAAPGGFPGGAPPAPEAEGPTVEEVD

B1: GST-Nup116(165–715)p (domain or fragment, S. cerevisiae, UniProt Q02630 165-715, looked up)
chain: RKFGTSQNGTGTTFNNPQGTTNTGFGIMGNNNSTTSATTGGLFGQKPATGMFGTGTGSGGGFGSGATNSTGLFGSSTNLSGNSAFGANKPATSGGLFGNTTNNPTNGTNNTGLFGQQNSNTNGGLFGQQQNSFGANNVSNGGAFGQVNRGAFPQQQTQQGSGGIFGQSNANANGGAFGQQQGTGALFGAKPASGGLFGQSAGSKAFGMNTNPTGTTGGLFGQTNQQQSGGGLFGQQQNSNAGGLFGQNNQSQNQSGLFGQQNSSNAFGQPQQQGGLFGSKPAGGLFGQQQGASTFASGNAQNNSIFGQNNQQQQSTGGLFGQQNNQSQSQPGGLFGQTNQNNNQPFGQNGLQQPQQNNSLFGAKPTGFGNTSLFSNSTTNQSNGISGNNLQQQSGGLFQNKQQPASGGLFGSKPSNTVGGGLFGNNQVANQNNPASTSGGLFGSKPATGSLFGGTNSTAPNASSGGIFGSNNASNTAATTNSTGLFGNKPVGAGASTSAGGLFGNNNNSSLNNSNGSTGLFGSNNTSQSTNAGGLFQNNTSTNTSGGGLFS
notes: Cloned into pGEX-4T-2; also called Nup116p; source: DH5α, purified (Glutathione Sepharose, NAP-10 desalting)
- binding result [1]: binds
- binding result [2]: binds
